Data set [1] deals with PcfF1-54 (RHH domain, GST tag cleaved off) (Enterococcus faecalis (plasmid pCF10)) (UniProt Q5G3N6). In words: SEC; Superdex 75 10/300 GL with molecular mass standards; PcfF1-54 after GST cleavage, absorbance at 254 nm.
The target of data set [2] is T1, PcfF (Enterococcus faecalis plasmid pCF10, UniProt Q5G3N6 1-118).
T1 sequence: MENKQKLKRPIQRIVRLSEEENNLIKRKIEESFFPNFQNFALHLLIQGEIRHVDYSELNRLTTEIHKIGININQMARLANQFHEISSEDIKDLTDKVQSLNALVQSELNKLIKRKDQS
In words: EMSA; EMSA: 30 nM DNA, 10 mM Tris/HCl pH 7.5, 200 mM NaCl (150 mM NaCl with PcfG), 15 min at room temperature; 20% native PAGE in TAE pH 8.0 at 4 C. Conditions: protein: recombinant; tags: N-terminal GST, 3C-cleaved (4 extra residues left); chain copies: 2; label: 5' FITC on sense strand. A general note: A gel shift assay detects complexes by their altered migration in electrophoresis.

The target in data set [3] is PcfF I70S/R77S (Enterococcus faecalis plasmid pCF10, UniProt Q5G3N6 1-118, I70S;R77S). Description: EMSA; 100 nM protein; as wild type; EMSA: 30 nM DNA, 10 mM Tris/HCl pH 7.5, 200 mM NaCl (150 mM NaCl with PcfG), 15 min at room temperature; 20% native PAGE in TAE pH 8.0 at 4 C. Particulars: protein: recombinant; chain copies: 2; label: 5' FITC on sense strand.
Data set [4] deals with PcfF R77S (Enterococcus faecalis plasmid pCF10, UniProt Q5G3N6 1-118, R77S). The description is as above. Conditions: protein: recombinant; chain copies: 2; label: 5' FITC on sense strand.
The target of data set [5] is PcfF N73A/Q74A (Enterococcus faecalis plasmid pCF10, UniProt Q5G3N6 1-118, N73A;Q74A). Described as above. Conditions: protein: recombinant; chain copies: 2; label: 5' FITC on sense strand.
Data set [6] has as its target PcfF I70S (Enterococcus faecalis plasmid pCF10, UniProt Q5G3N6 1-118, I70S). Described as above. Particulars: protein: recombinant; chain copies: 2; label: 5' FITC on sense strand.
Data set [7] has as its target PcfF R13L/I14A (Enterococcus faecalis plasmid pCF10, UniProt Q5G3N6 1-118, R13L;I14A). Description: EMSA; 100 nM protein; Results also say marked decrease; EMSA: 30 nM DNA, 10 mM Tris/HCl pH 7.5, 200 mM NaCl (150 mM NaCl with PcfG), 15 min at room temperature; 20% native PAGE in TAE pH 8.0 at 4 C. Particulars: protein: recombinant; chain copies: 2; label: 5' FITC on sense strand.

Data set [8] deals with PcfF R13L (Enterococcus faecalis plasmid pCF10, UniProt Q5G3N6 1-118, R13L). The description is as above. Conditions: protein: recombinant; chain copies: 2; label: 5' FITC on sense strand.
Data set [9] deals with the molecule itself. Description: GEMMA (gas-phase electrophoretic mobility macromolecule analysis); SEC peak of wild type PcfF dialysed against 100 mM ammonium acetate pH 7.8, diluted to 0.025 mg/mL with 0.005% Tween-20.
Data set [10] deals with the molecule itself. Description: SEC; Superdex 200 10/300 GL Increase; 20 mM Tris/HCl pH 7.5, 200 mM NaCl; PcfF and its variants, self-association.
Data set [11] concerns the molecule itself. Description: crystal structure; SeMet-PcfF, sitting drop at 20°C, 0.2 M lithium sulfate, 0.1 M Bis-Tris pH 6.5, 25% PEG 3350; space group P2_(1), 4 molecules in the asymmetric unit; 1.9 Å.
Data set [12] deals with T1, PcfF. In words: EMSA (DNA bending); EMSA: 30 nM DNA, 10 mM Tris/HCl pH 7.5, 200 mM NaCl (150 mM NaCl with PcfG), 15 min at room temperature; 20% native PAGE in TAE pH 8.0 at 4 C. Particulars: protein: recombinant; tags: N-terminal GST, 3C-cleaved (4 extra residues left); chain copies: 2.
Data set [13] has as its target T1, PcfF. In words: EMSA (DNA bending); more pronounced shift than end positions; bending; EMSA: 30 nM DNA, 10 mM Tris/HCl pH 7.5, 200 mM NaCl (150 mM NaCl with PcfG), 15 min at room temperature; 20% native PAGE in TAE pH 8.0 at 4 C. Particulars: protein: recombinant; tags: N-terminal GST, 3C-cleaved (4 extra residues left); chain copies: 2.

For orientation: stoichiometry N means a count of units in the complex or per binding partner. In turn, “PcfF1-54 (RHH domain, GST tag cleaved off) (from UniProt Q5G3N6 1-54) (domain or fragment)” returned a stoichiometry N in [1] of 2.

B1: random 44 bp DNA (dsDNA)
DNA 1: AGTGAACTGAAAGAAGAAACACACGTTGCATGAAGAGCTATATA
DNA 2: TATATAGCTCTTCATGCAACGTGTGTTTCTTCTTTCAGTTCACT
On to B1, for which the binding result in data set [2] is recorded as “no binding”.

B2: oriT 40 bp (dsDNA)
DNA 1: TCGCAACATGCTAGCATGTTGCTCCGCTTGCAAAAAGAAA
DNA 2: TTTCTTTTTGCAAGCGGAGCAACATGCTAGCATGTTGCGA
The term Kd denotes a measure of binding affinity in units of concentration. With B2, the Kd in data set [2] is ~100 nM. Also, the binding result in data set [3] was “binds”; in [4], “binds”; in data set [5], “binds”; in data set [6] it was “binds”; in data set [7] it was “no binding”; in [8], “no binding”.

B3: PcfF (wild type, full length, GST tag cleaved off) (natural protein)
chain: MENKQKLKRPIQRIVRLSEEENNLIKRKIEESFFPNFQNFALHLLIQGEIRHVDYSELNRLTTEIHKIGININQMARLANQFHEISSEDIKDLTDKVQSLNALVQSELNKLIKRKDQS
notes: PcfF accessory factor encoded by plasmid pCF10 of Enterococcus faecalis; GenBank AAW51324; 118 residues, 14 kDa; Cloned in pGEX-6P-2 (BamHI/XhoI); the same is likely here; also called wt PcfF; accessory factor PcfF; source: E. coli BL21(DE3), purified (glutathione-agarose, SEC, 3C protease cleavage, second SEC, reverse purification); not shown: GST, N-terminal, cleaved
Consider B3, for which, in [9], the “stoichiometry N” value was ~2.

B4: PcfF R13L/I14A (natural protein)
chain: MENKQKLKRPIQLAVRLSEEENNLIKRKIEESFFPNFQNFALHLLIQGEIRHVDYSELNRLTTEIHKIGININQMARLANQFHEISSEDIKDLTDKVQSLNALVQSELNKLIKRKDQS
notes: PcfF of plasmid pCF10, Enterococcus faecalis; GenBank AAW51324; 118 residues; source: E. coli BL21(DE3), purified (glutathione-agarose, SEC)
Take B4: the binding result in data set [10] is on record as “binds”.

B5: PcfF Q105W (natural protein)
chain: MENKQKLKRPIQRIVRLSEEENNLIKRKIEESFFPNFQNFALHLLIQGEIRHVDYSELNRLTTEIHKIGININQMARLANQFHEISSEDIKDLTDKVQSLNALVWSELNKLIKRKDQS
notes: PcfF of plasmid pCF10, Enterococcus faecalis; GenBank AAW51324; 118 residues; also called PcfF_(Q105A/W) variants; source: E. coli BL21(DE3), purified (glutathione-agarose, SEC)
Regarding B5, in [10], the binding result is reported as “binds”.

B6: PcfF Q105A (natural protein)
chain: MENKQKLKRPIQRIVRLSEEENNLIKRKIEESFFPNFQNFALHLLIQGEIRHVDYSELNRLTTEIHKIGININQMARLANQFHEISSEDIKDLTDKVQSLNALVASELNKLIKRKDQS
notes: as for B5
As for B6, in data set [10], the binding result is given as “binds”.

B7: PcfF N73A/Q74A (as run on SEC) (natural protein)
chain: MENKQKLKRPIQRIVRLSEEENNLIKRKIEESFFPNFQNFALHLLIQGEIRHVDYSELNRLTTEIHKIGINIAAMARLANQFHEISSEDIKDLTDKVQSLNALVQSELNKLIKRKDQS
notes: as for B4
Take B7: in [10], the binding result is listed as “binds”.

B8: PcfF R13L (natural protein)
chain: MENKQKLKRPIQLIVRLSEEENNLIKRKIEESFFPNFQNFALHLLIQGEIRHVDYSELNRLTTEIHKIGININQMARLANQFHEISSEDIKDLTDKVQSLNALVQSELNKLIKRKDQS
notes: as for B4
On to B8, for which the binding result in data set [10] was “binds”.

B9: PcfF I14A (natural protein)
chain: MENKQKLKRPIQRAVRLSEEENNLIKRKIEESFFPNFQNFALHLLIQGEIRHVDYSELNRLTTEIHKIGININQMARLANQFHEISSEDIKDLTDKVQSLNALVQSELNKLIKRKDQS
notes: as for B4
Consider B9, for which the binding result in [10] is listed as “binds”.

B10: PcfF I70S (as run on SEC) (natural protein)
chain: MENKQKLKRPIQRIVRLSEEENNLIKRKIEESFFPNFQNFALHLLIQGEIRHVDYSELNRLTTEIHKIGSNINQMARLANQFHEISSEDIKDLTDKVQSLNALVQSELNKLIKRKDQS
notes: as for B4
With B10, the binding result in data set [10] is recorded as “binds”.

B11: PcfF I70S/R77S (as run on SEC) (natural protein)
chain: MENKQKLKRPIQRIVRLSEEENNLIKRKIEESFFPNFQNFALHLLIQGEIRHVDYSELNRLTTEIHKIGSNINQMASLANQFHEISSEDIKDLTDKVQSLNALVQSELNKLIKRKDQS
notes: as for B4
As for B11, the binding result in [10] is given as “binds”.

B12: Selenomethionine-derivatized PcfF (full length) (natural protein)
chain: MENKQKLKRPIQRIVRLSEEENNLIKRKIEESFFPNFQNFALHLLIQGEIRHVDYSELNRLTTEIHKIGININQMARLANQFHEISSEDIKDLTDKVQSLNALVQSELNKLIKRKDQS
modifications: selenomethionine in place of methionine
notes: PcfF accessory factor encoded by plasmid pCF10 of Enterococcus faecalis; GenBank AAW51324; 118 residues; Probably with the GST cleaved off, as for the wild type; 4 molecules in the asymmetric unit (dimer of dimers); also called SeMet-PcfF; source: E. coli BL21(DE3) in M9 minimal medium with L-selenomethionine, purified as wild type PcfF with 0.5 mM TCEP
As for B12, the binding result in data set [11] is reported as “binds”.

B13: PcfF R13L/I14A/R16L (natural protein)
chain: MENKQKLKRPIQLAVLLSEEENNLIKRKIEESFFPNFQNFALHLLIQGEIRHVDYSELNRLTTEIHKIGININQMARLANQFHEISSEDIKDLTDKVQSLNALVQSELNKLIKRKDQS
notes: as for B4
Turning to B13, the binding result in data set [10] is listed as “binds”.

B14: PcfF R13L/R16L (natural protein)
chain: MENKQKLKRPIQLIVLLSEEENNLIKRKIEESFFPNFQNFALHLLIQGEIRHVDYSELNRLTTEIHKIGININQMARLANQFHEISSEDIKDLTDKVQSLNALVQSELNKLIKRKDQS
notes: as for B4
As to B14, the binding result in data set [10] is listed as “binds”.

B15: PcfF R77S (as run on SEC) (natural protein)
chain: MENKQKLKRPIQRIVRLSEEENNLIKRKIEESFFPNFQNFALHLLIQGEIRHVDYSELNRLTTEIHKIGININQMASLANQFHEISSEDIKDLTDKVQSLNALVQSELNKLIKRKDQS
notes: as for B4
On to B15, for which the binding result in [10] is on record as “binds”.

B16: PcfF R16L (natural protein)
chain: MENKQKLKRPIQRIVLLSEEENNLIKRKIEESFFPNFQNFALHLLIQGEIRHVDYSELNRLTTEIHKIGININQMARLANQFHEISSEDIKDLTDKVQSLNALVQSELNKLIKRKDQS
notes: as for B4
Consider B16, for which the binding result in data set [10] was “binds”.

B17: oriT 3' 120 bp (dsDNA)
DNA 1: GTCTCGAGTTTAAAGATATCCAGCTGCCCGGGAGGCCTTCGCGAAATATTGGTACCCCATGGAATCGAGGGATCCTCTAGTCGCAACATGCTAGCATGTTGCTCCGCTTGCAAAAAGAAA
DNA 2: TTTCTTTTTGCAAGCGGAGCAACATGCTAGCATGTTGCGACTAGAGGATCCCTCGATTCCATGGGGTACCAATATTTCGCGAAGGCCTCCCGGGCAGCTGGATATCTTTAAACTCGAGAC
Take B17: the binding result in data set [12] was “binds”.

B18: oriT middle 120 bp (dsDNA)
DNA 1: GCGAAATATTGGTACCCCATGGAATCGAGGGATCCTCTAGTCGCAACATGCTAGCATGTTGCTCCGCTTGCAAAAAGAAAAGTCGACACGCGTAGATCTGCTAGCATCGATCCATGGACT
DNA 2: AGTCCATGGATCGATGCTAGCAGATCTACGCGTGTCGACTTTTCTTTTTGCAAGCGGAGCAACATGCTAGCATGTTGCGACTAGAGGATCCCTCGATTCCATGGGGTACCAATATTTCGC
As to B18, the binding result in data set [13] is “binds”.
